Measurements published in patent US11390653B2, “Amino acid-specific binder and selectively identifying an amino acid” (priority 2018, dated 2022).

B1: A. tumefaciens ClpS2 [Pro34 Arg35 Glu36] (protein)
chain: MGHHHHHHENLYFQGSDSPVDLKPKPKVKPKLERPKLYKVMLLNDDYTPREFVTVVLKAVFRMSEDTGRRVMMTAHRFGSAVVVVCERDIAETKAKEATDLGKEAGFPLMFTTEPEE
notes: wild-type Agrobacterium tumefaciens ClpS2, N-End Rule Pathway adaptor protein
B2: A. tumefaciens ClpS2 [Pro34 Met35 Ser36] (protein, listed as Escherichia coli)
chain: SDSPVDLKPKPKVKPKLERPKLYKVMLLNDDYTPMSFVTVVLKAVFRMSEDTGRRVMMTAHRFGSAVVVVCERDIAETKAKEATDLGKEAGFPLMFTTEPEE
notes: ClpS2 variant, native residues 34-36 ProArgGlu mutated to ProMetSer

Tests used:
Assay type in all cases: binding
F1G2 peptide [1] = test: yeast/peptide colorimetric pull-down assay; details: yeast-displayed protein
Protocol: (§1) Incubation and wash steps were repeated.

F1G2 peptide [2] = test: SPR, peptide on streptavidin chip, ClpS2 variant protein in solution; details: for specificity between N-terminal Phe and Trp, in words: from SPR binding data; for KOFF Phe: from SPR dissociation curves; for Selectivity for Phe, Phe/Phe / Selectivity for Phe, Phe/Trp / Selectivity for Phe, Phe/Tyr: relative specificity factor, ratio of binding affinities; for Kd: steady state, peptide on surface, 0 to 50 μM protein, read-out: KD Phe
Protocol: (§2) With regard to surface plasmon resonance (SPR), SPR data was collected by loading a streptavidin chip with the target biotinylated peptides in each of the four channels, and then flowing the protein over the chip at each concentration for 180 seconds before washing with 50 mM Tris-HCl, pH 8.0, 300 mM NaCl, 1 mM DTT, 5% glycerol buffer for 180 seconds. […] The four channels were used such that the negative control peptide (A1G2) was in channel 1, F1G2 in channel 2, W1G2 in channel 3, and Y1G2 in channel 4. The negative control peptide channel was used as a baseline for subtraction, which accommodates both any non-specific binding and refractive index change. A steady state response at each concentration was plotted and fit to calculate the KD, while the resonance units vs. time was used to calculate a koff for each mutant protein with each peptide.
(§3) Regarding characterization of the ClpS mutant protein binding kinetics, for peptide sequencing via some recently proposed methods reagents can bind peptides affixed to a surface. Two A. tumefaciens ClpS2 protein variants (V2, described above, and V1) were expressed and purified from E. coli. […] The binding properties of each variant were analyzed using surface plasmon resonance (SPR).

Y1G2 peptide = test: as above; details: for KOFF Tyr: from SPR dissociation curves; for Selectivity for Tyr, Tyr/Phe / Selectivity for Tyr, Tyr/Trp / Selectivity for Tyr, Tyr/Tyr: relative specificity factor, ratio of binding affinities; for Kd: steady state, peptide on surface, 0 to 50 μM protein, read-out: KD Tyr
Protocol: as §2, §3

Ala NAA peptide = target: T1, Ala NAA peptide (Agrobacterium fabrum, UniProt Q8UD95); test: yeast/peptide colorimetric pull-down assay
T1 construct: factor Xa cleavage site (N); expressed in transfected cells; host or cells: Saccharomyces cerevisiae EBY100, pCTCON2
Protocol: as §1

Leu NAA peptide = test: yeast/peptide colorimetric pull-down assay; details: yeast-displayed protein
Protocol: as §1

Met NAA peptide = target: T2, Met NAA peptide (Agrobacterium fabrum, UniProt Q8UD95); test: yeast/peptide colorimetric pull-down assay; details: high concentrations used in the assay
T2 construct: factor Xa cleavage site (N); expressed in transfected cells; host or cells: Saccharomyces cerevisiae EBY100, pCTCON2
Protocol: as §1

Lys NAA peptide = target: T3, Lys NAA peptide (Agrobacterium fabrum, UniProt Q8UD95); test: yeast/peptide colorimetric pull-down assay; details: high concentrations used in the assay
T3 construct: factor Xa cleavage site (N); expressed in transfected cells; host or cells: Saccharomyces cerevisiae EBY100, pCTCON2
Protocol: as §1

Ile NAA peptide = target: T4, Ile NAA peptide (Agrobacterium fabrum, UniProt Q8UD95); test: yeast/peptide colorimetric pull-down assay
T4 construct: factor Xa cleavage site (N); expressed in transfected cells; host or cells: Saccharomyces cerevisiae EBY100, pCTCON2
Protocol: as §1

Val NAA peptide = target: T5, Val NAA peptide (Agrobacterium fabrum, UniProt Q8UD95); test: yeast/peptide colorimetric pull-down assay
T5 construct: factor Xa cleavage site (N); expressed in transfected cells; host or cells: Saccharomyces cerevisiae EBY100, pCTCON2
Protocol: as §1

His NAA peptide [3] = target: T6, His NAA peptide (Agrobacterium fabrum, UniProt Q8UD95); test: yeast/peptide colorimetric pull-down assay; design: factor Xa cleavage site (N); expressed in transfected cells; host or cells: Saccharomyces cerevisiae EBY100, pCTCON2; details: high concentrations used in the assay
Protocol: as §1

Arg NAA peptide [4] = target: T7, Arg NAA peptide (Agrobacterium fabrum, UniProt Q8UD95); test: yeast/peptide colorimetric pull-down assay; design: factor Xa cleavage site (N); expressed in transfected cells; host or cells: Saccharomyces cerevisiae EBY100, pCTCON2; details: high concentrations used in the assay
Protocol: as §1

[5] = target: T8, full panel of 20 peptides containing different NAAs (Agrobacterium fabrum, UniProt Q8UD95); test: yeast/peptide colorimetric pull-down assay, full panel
T8 construct: factor Xa cleavage site (N); expressed in transfected cells; host or cells: Saccharomyces cerevisiae EBY100, pCTCON2
Protocol: as §1

W1G2 peptide = details: for KOFF Trp: from SPR dissociation curves; for Selectivity for Trp, Trp/Phe / Selectivity for Trp, Trp/Trp / Selectivity for Trp, Trp/Tyr: relative specificity factor, ratio of binding affinities; for Kd: steady state, peptide on surface, 0 to 50 μM protein, read-out: KD Trp
Protocol: as §2, §3

His NAA peptide [6] = target: T6, His NAA peptide; test: flow cytometry of yeast displaying ClpS proteins; design: factor Xa cleavage site (N); expressed in transfected cells
Protocol: (§4) After two rounds of MACs selection, the library was sorted by flow cytometry. […] A typical reaction contained 100 μL of cells (containing approximately 10^6 cells), 10 μL of peptide at a concentration between 10 nM to 10 μM, and 25 μL of a master mix containing 2 μL of an anti-myc antibody, 4 μL of the SAPE (streptavidin, R-phycoerythrin conjugate—1 mg/mL) and 19 μL of PBS/BSA for each sample.
(§5) Cells were washed with PBS/BSA and sorted using a FACS Aria cytometer and collected in 1 mL of SD-CAA media. The number of cells that bound the peptide improved with each round and were sorted with sequentially lower concentrations of peptide to increase the stringency of the selection. […]
(§6) With regard to directed evolution of ClpS, random mutagenesis and screening was used to select proteins with higher affinity binding to the target NAA. In subsequent steps, specific residues were determined from initial screens with a targeted mutagenesis step. […] Using FACS, we assessed the affinity of each mutant for the N-terminal amino acid on the target peptide based on which quadrant the fluorescent signal fell into as shown in FIG. 15. […] If there is also a high fluorescence signal along the x-axis (streptavidin-PE) then the peptide is presumably bound to the protein variant, and the signal will appear in Q2. […]

Arg NAA peptide [7] = target: T7, Arg NAA peptide; test: flow cytometry of yeast displaying ClpS proteins; design: factor Xa cleavage site (N); expressed in transfected cells
Protocol: as §4, §5, §6

| Molecule | specificity between N-terminal Phe and Trp, in words (F1G2 peptide [2]) | KOFF Phe (F1G2 peptide [2]) [s⁻¹] | Selectivity for Phe, Phe/Phe (F1G2 peptide [2]) | Selectivity for Phe, Phe/Trp (F1G2 peptide [2]) | Selectivity for Phe, Phe/Tyr (F1G2 peptide [2]) | Kd (F1G2 peptide [2]) [µM] | KOFF Tyr (Y1G2 peptide) [s⁻¹] | Selectivity for Tyr, Tyr/Phe (Y1G2 peptide) | Selectivity for Tyr, Tyr/Trp (Y1G2 peptide) | Selectivity for Tyr, Tyr/Tyr (Y1G2 peptide) | Kd (Y1G2 peptide) [µM] | KOFF Trp (W1G2 peptide) [s⁻¹] | Selectivity for Trp, Trp/Phe (W1G2 peptide) | Selectivity for Trp, Trp/Trp (W1G2 peptide) | Selectivity for Trp, Trp/Tyr (W1G2 peptide) | Kd (W1G2 peptide) [µM] | also measured |
| --- | --- | --- | --- | --- | --- | --- | --- | --- | --- | --- | --- | --- | --- | --- | --- | --- | --- |
| A. tumefaciens ClpS2 [Variant V3, A. tumefaciens ClpS2 [Cys34 Ser35 Trp36]] | – | – | – | – | – | – | – | – | – | – | – | – | – | – | – | – | affinity for F1G2 peptide compared to wild-type (F1G2 peptide [1]): increased affinity; selectivity towards F1G2 peptide compared to other NAAs (F1G2 peptide [1]): higher selectivity |
| B1 | modest specificity for N-terminal Phe | 0.93 | 1.0 | 0.71 | 0.21 | 13 ± 0.6 | 1.16 | 4.86 | 3.43 | 1.0 | 63 ± 4 | 1.32 | 1.42 | 1.0 | 0.29 | 18.4 ± 0.4 | binding to Ala (Ala NAA peptide): lack of binding; binding to Leu (Leu NAA peptide): does not bind; binding to Met (Met NAA peptide): some binding activity; binding to Lys (Lys NAA peptide): some binding activity; binding to Ile (Ile NAA peptide): does bind; binding to Val (Val NAA peptide): lack of binding; binding to His (His NAA peptide [3]): some binding activity; binding to Arg (Arg NAA peptide [4]): some binding activity; binding to the remaining amino acids [5]: non-binding; binding to His (His NAA peptide [6]): confirmed; binding to Arg (Arg NAA peptide [7]): confirmed |
| B2 | more specific for N-terminal Trp than for Phe | 0.1 | 1.0 | 0.14 | 0.16 | 1.8 ± 0.4 | 0.5 | 6.43 | 0.88 | 1.0 | 11.6 ± 1.2 | 0.76 | 7.28 | 1.0 | 1.13 | 13.1 ± 1.3 | dissociation rate slowed over wild-type, Phe (F1G2 peptide [2]; SPR): 9.4 fold; improvement in KD/affinity for Phe peptide compared to wild-type (F1G2 peptide [2]; SPR): 7.2 fold; improvement in KD/affinity for Phe peptide compared to wild-type (F1G2 peptide [2]; SPR, listed as ProMetSer variant): 7 fold; improvement in affinity for Y1G2 compared to wild-type (Y1G2 peptide; SPR): 5.5 fold; affinity for N-terminal Trp relative to wild-type, in words (W1G2 peptide; in vitro surface binding assays / SPR): little change |
